Source: article PMC7352597

What was measured:
[1] = molecular target: T1, RL2 (recombinant Lactaptin 2), the recombinant fragment of human κ-Casein (human), P07498; experiment: cellular fractionation, SDS-PAGE and Western Blot; MDA-MB-231 cells stimulated with 100 µg/mL RL2; fractions for cytoplasm, nucleus and mitochondria; RL2 monomer and dimer bands detected by Western Blot; details: remark: other sources report otherwise
T1 chain: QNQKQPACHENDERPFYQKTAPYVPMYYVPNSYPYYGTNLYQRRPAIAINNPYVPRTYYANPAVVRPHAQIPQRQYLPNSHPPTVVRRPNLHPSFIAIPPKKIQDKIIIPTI

[2] = molecular target: T1, RL2 (recombinant Lactaptin 2), the …; experiment: SDS-PAGE and Western Blot of cell lysates; MDA-MB-231 cells treated with 200 µg/mL RL2 for indicated times, extracellular RL2 washed off; RL2 monomer and dimer bands detected in lysates with anti-κ-Casein antibody; SDS-PAGE under reducing conditions; details: remark: other sources report otherwise

- stoichiometry N [1]: 2
- stoichiometry N [2]: 2
B1: RL2 (recombinant Lactaptin 2), the recombinant fragment of human κ-Casein, P07498 23-134 (domain or fragment)
chain: T1 chain
